assay: soluble on expression in E. coli; label from the status in PepcDB or PDB records

Q: For “SPTNLANGLSSLLKPLKFFHLPIDEISLMLALSLRFVPTLMDETGKIMNAQRARGVDFGEGNIFQQMRSLVPIFIPQFIASFNRADELATAMESRGYRGAAKRTKFNRLKFK”, which “soluble on expression in E. coli” value is on record?
A: not soluble

Q: With “MIQLEKLTKHFGTKRVVHDASAQFDKGQVTAIIGPNGAGKSTLLSMASRLVNRDAGKVWIEQRELVEWNTKALAQKLAVLRQSNVLNMRFTVRELTAFGRFPYSQGKLTTQDEQIINQAIEYLDLETIQYQYLDELSGGQRQLAFIAMVMAQDTDYVFLDEPLNNLDIKHSLQIMSTLRRLAHELNKAVVVVIHDINFASCYADKIVALKKGEVVATGSVRDVIQSEVLSAIYDTPFNVIEMQGQRLCLYTLPT” as the sequence, how does the “soluble on expression in E. coli” value read?
A: not soluble

Q: With “MGSDKIHHHHHHENKLVSGAVGLGFGTGPTFPGADENDSGLFPVVDLKIGQYVVVNQRGLGLEHSRSLGHGELSYGLGVGYDFTSRSVEDDLRLAGLSDVDAGAMATLFLEYQTGPFSYGLEVMRGLNSDGHEGTRAKLSGGYDIQLSERAGLSVSPYLIWADDNWMDSFFSVSNAQSVASGLAAYDANAGMSQAGLNLTASYALREQVIVFASVDYATLLGDAADSSVSFDDNAASLSAGVMFRF” as the sequence, how does the “soluble on expression in E. coli” value read?
A: not soluble

Q: With “MNVGDVVKGEVLAIDDDKQVIVGIQGTGVEGVVPLKELSTQRVDDVNEAAKVGDVLDLVVISRIGSDKENGSYLLSHRRLEARKVWDDVEKEYEAGHTIKAPVTQVVKGGLVVDAGVRGFIPASMIDDHYVEDLNAYKGQELELKIIEIEPSENRLILSHRAVVEKQREALEHHHHHH” as the sequence, how does the “soluble on expression in E. coli” value read?
A: soluble

Q: Which “soluble on expression in E. coli” value does the source give for “MPMFNTLTSLFKQLLEGQDLAQHSATPELAIACLLSEVAGADQQISAPEQQAKLALLQHLLQCTAEQASDLLMRAEQEVKQSASLYDFTSQLRSLSQTQRFELIKAMWEVANADGTIDPLEDAVIRKAAELLYVDHSQFIRAKLMAADKHQSPE” here?
A: not soluble

Q: For “GIPRNSRVDSDDFLWFEGIAFPTMGFRSETLRKVRDEFVIRDEDVIILTYPKSGTNWLAEILCLMHSKGDAKWIQSVPIWERSPWVESEIGYTALSETESPRLFSSHLPIQLFPKSFFSSKAKVIYLMRNPRDVLVSGYFFWKNMKFLKKPKSWEEYFEWFCQGTVLYGSWFDHIHGWMPMREEKNFLLLSYEELKQDTGRTIEKICQFLGKTLEPEELNLILKNSSFQSMKENKMSNYSLLSVDYVVDKTQLLRKGVSGDWKNHFTVAQAEDFDKLFQEKMADLPRELFPWE”, which “soluble on expression in E. coli” value is on record?
A: soluble

Q: With “MGVEQILKRKTGVIVGEDVHNLFTYAKEHKFAIPAINVTSSSTAVAALEAARDSKSPIILQTSNGGAAYFAGKGISNEGQNASIKGAIAAAHYIRSIAPAYGIPVVLHSDHCAKKLLPWFDGMLEADEAYFKEHGEPLFSSHMLDLSEETDEENISTCVKYFKRMAAMDQWLEMEIGITGGEEDGVNNENADKEDLYTKPEQVYNVYKALHPISPNFSIAAAFGNCHGLYAGDIALRPEILAEHQKYTREQVGCKEEKPLFLVFHGGSGSTVQEFHTGIDNGVVKVNLDTDCQYAYLTGIRDYVLNKKDYIMSPVGNPEGPEKPNKKFFDPRVWVREGEKTMGAKITKSLETFRTTNTL” as the sequence, how does the “soluble on expression in E. coli” value read?
A: soluble

Q: For “MGSDKIHHHHHHMMFKWPWKADDESGNAEMPWEQALAIPVLAHLSSTEQHKLTQMAARFLQQKRLVALQGLELTPLHQARIAMLFCLPVLELGIEWLDGFHEVLIYPAPFIVDDEWEDDIGLVHNQRVVQSGQSWQQGPVVLNWLDIQDSFDASGFNLVVHEVAHKLDTRNGDRASGVPLIPLREVAGWEHDLHAAMNNIQDEIDLVGESAASIDAYAATDPAECFAVLSEYFFSAPELFAPRFPALWQRFCHFYRQDPLARRRENGLQDEGDRRIVH”, which “soluble on expression in E. coli” value is on record?
A: not soluble

Q: With “MPGYYKISHSWEYRRRTCQDDVLLEAVITSDTNLNTEKTLLQWLNDKNKNKGTNTVDYKDITCWYYGGVWLHYAINNNALSLYMHSSGEDAFDSLNYCAYEIAKTFYKNHSDISILWIEHPHKRNKLKET” as the sequence, how does the “soluble on expression in E. coli” value read?
A: not soluble

Q: For “MGSDKIHHHHHHMQNPQQVSASKTLSPILVQGAMDIEVETLIAALGKVTVNTFGSWTFWEGELSGHPVVVSRTEIGLANAAAATTLAIAHYRPKLIINQGTAGGHDPKLYRGDIVIGETSFNMGSYLTKLTPKGQGIHPTQWQNFDMTMYLRENGEVVKHNHFKADPALVEVALSQAHHYTKGNVVKGIIGTGDEWNRELDRINWLHHTFGTAVEEMETSAAALVAEAYKLPFVSIRILSNTDQHDQDCDPQTAVDCQQFVLNIIQQLINTTK”, which “soluble on expression in E. coli” value is on record?
A: not soluble

Q: For “GAMASSVLVTQEPEIELPREPRPNEECLQILGNAEKGAKFLSDAEIIQLVNAKHIPAYKLETLIETHERGVSIRRQLLSKKLSEPSSLQYLPYRDYNYSLVMGACCENVIGYMPIPVGVAGPLCLDEKEFQVPMATTEGCLVASTNRGCRAIGLGGGASSRVLADGMTRGPVVRLPRACDSAEVKAWLETSEGFAVIKEAFDSTSRFARLQKLHTSIAGRNLYIRFQSRSGDAMGMNMISKGTEKALSKLHEYFPEMQILAVSGNYCTDKKPAAINWIEGRGKSVVCEAVIPAKVVREVLKTTTEAMIEVNINKNLVGSAMAGSIGGYNAHAANIVTAIYIACGQDAAQNVGSSNCITLMEASGPTNEDLYISCTMPSIEIGTVGGGTNLLPQQACLQMLGVQGACKDNPGENARQLARIVCGTVMAGELSLMAALAAGHLVKSHMIHNRSKINLQDLQGACTKKTA”, which “soluble on expression in E. coli” value is on record?
A: soluble

Q: Which “soluble on expression in E. coli” value does the source give for “MAGDPMGSKNESTASKASGTASEKKKIEYLDKTYEVTVPTDKIAITGSVESMEDAKLLDVHPQGAISFSGKFPDMFKDITDKAEPTGEKMEPNIEKILEMKPDVILASTKFPEKTLQKISTAGTTIPVSHISSNWKENMMLLAQLTGKEKKAKKIIADYEQDLKEIKTKINDKAKDSKALVIRIRQGNIYIYPEQVYFNSTLYGDLGLKAPNEVKAAKAQELSSLEKLSEMNPDHIFVQFSDDENADKPDALKDLEKNPIWKSLKAVKEDHVYVNSVDPLAQGGTAWSKVRFLKAAAEKLTQNLEHHHHHH” here?
A: soluble

Q: With “MGSDKIHHHHHHMIEDNMKLKTGIPALDRILGGGFEKGCNIALVGGMDNDHILLTHQLTNAFLSSGKKVLLVELRQDPASLIKWLSQYNINYEEYLEDGDLKILDGFSNLYSPASISGPDVLPNPLDLGITTAIIRDNVSKEKYDILVFDDITSLYALQTDYKAYVRVIVRLTNSIRKLGASSLVAINSDVLSIQDLSMILMPFEYLIEIREGMIRFKRSFSFINVPGVPYVKTNKGIIPIEDVLKDAVSIRDSLVLTSDGVLKLGEGRVQLIGETSERSLIEFVYRFLGPEKGREFLYGWGRHEVEHLEIPKIESVEEIKEILEEAFEVTRSTGGGILRIVEATKDIIIVEGKNLFPHIRNFPYPAHVHYAGYMAKLLEKATGERWEGEEIKCESQTNDKCIFILRRV” as the sequence, how does the “soluble on expression in E. coli” value read?
A: not soluble

Q: With “PSTAAWFNAREQAKLVDLYDSKIENATPLSAEQLLELAHRYNDRLTVGAALDPWANVPRGAGKEDGDGMAYKDQLRVDRTDVMARIRIPSIKVDLPIYHGTSDNTLKKGAGHLEGTSLPVGGPRTHSVITAHRGLAEATMFTNLNKVGVGDRFTIEVMGEVLTYEVRETRVVSPEDTRFLQTQDDRDLVTLVTCTPLGINTHRILVTAERITPTPQSDIDAARQASQIGFP” as the sequence, how does the “soluble on expression in E. coli” value read?
A: not soluble

Q: Which “soluble on expression in E. coli” value does the source give for “VLIARRPEDKHQGGLWEFPGGKVEDGEPVRAALARELEEELGIRVERARPLIQVRHDYADKHVLLDVWEVDGFSGEAHGAEGQPLAWVEPRELADYEFPAANAPIVQAARLPAHYLITPDGLEPGELISGVRKAVEAGIRLIQLRAPNMFSPEYRDLAIDIQGLCAGKAQLMLKGPLEWLGDFPAAGWHLTSAQLRKYASAGRPFPEGRLLAASCHDAEELALAASMGVEFVTLSPVQPTESHPGEPALGWDKAAELIAGFNQPVYLLGGLGPQQAEQAWEHGAQGVAGIRAFWPGGL” here?
A: not soluble

Q: Which “soluble on expression in E. coli” value does the source give for “MRYMMTYDWMETVRNTNQWMGATANSMASYPLFSMVPNPVFNWMSAWGEVTERTFQRMVVKPDWGIRTFTCEDGKDHLVEINTVVERDFGDLIHINVTGRETQPRKVLLVAPMSGHYATLLRSTVKSLLVNCEVYVTDWHNARDIPVSAGKFDVEDYTLYLVDFMRELGPDTHVIAVCQPAPLTLAATAYLAELDPKAQPSTLTLIGGPVDPDATPTEVTDFGRRVTMGQLEQSMIQRVGFKYKGVGRMVYPGLLQLASFMSMNADRHSKAFTDQIQRVMRDEASDHDAHNRFYDEYLAVMDMTAEFYLSTVERVFKKREIARNAFIVDGHKVDISKITDVAVMTVEGANDDISAPGQCIAALDLCTGLADSKKANHLEPGAGHYGIFAGRSWRDNIRPLVIDFMNTNSRKGKSLRPANKNSAA” here?
A: not soluble

Q: With “MSTEPLVVGAVAYTPNVVPIWEGIRGYFQDSESPDTQMDFVLYSNYARLVDSLIAGHIDIAWNTNLAYVRTVLQTGGRCTPLAQRDTDVDYTTVFVAHAGSDLHGAKDIAGKRLALGSADSAHAAILPLYYLRRAGIAESDLQVIRFDTDIGKHGDTGRSELDAVDAVLAGEADVAAIGSSTWAAMGAAELMGESLTEVWRTDGYCHCMFTALDTLPAERYQPWLDRLLAMSWDDSEHRKILELEGLRRWVPPHLDGYKPLFEAVQEQGIDPRW” as the sequence, how does the “soluble on expression in E. coli” value read?
A: not soluble

Q: For “MGSDKIHHHHHHMRKDEYRATLLEPNVWHIADYRGDSMYLVVGEEKALLVDTGMGEGDLKGFVRSITEKPVEVVLTHAHWDHIMQANQFEKVYLNHRDFQIIELFKINVNYENFLNVKEGDRFDLGGRTLEVIEVPGHTPGSIVLLDRENRLLFSGDSVGAGHTWMHLPGCLPLREYLKSLKKLKETDSFEKIYHGHLTGTQLKPFGPDYLDDLIKAVEGVIDGSLRGEP”, which “soluble on expression in E. coli” value is on record?
A: not soluble

Q: For “MGSDKIHHHHHHMKASVIIPAYNSKERLYNSLLSLNQQECDEEFEVIVADNGSEDGTLSMLESFQADFPLIFTRIKENRGIAYGRNQALRNARGDILIFHDSDMLAAKDLVAKHIKAHENEENLVVCGLFWKRIYSFYYERFEEEHKEQLAKLTGEMPKKDKQKLLEEADIKNGSFLDKSFDLDTDFIDVLKKILDEYGDDLKGYHMPWRFFITNNSSVKRKHVVDLGLFDEGIVRYGFEDYDLGIRLHQAGLTFRLRRDIVSVHQEHPSNCKSVDDIRANIAYMCDKYNNIRSLDVHLAFNGPFPPDMTNRIMADIQKLLESQKYDMLLNLFLELLHVVKERNIDPDWRKKSPRVTAKSFDLQTVRKLLPKAKKKLGVNDFANALYALVNDLLHVDLRSLDVV”, which “soluble on expression in E. coli” value is on record?
A: not soluble

Q: For “MTESPTTHHGAAPPDSVATPVRPWSEFRLTPAEAAAAAALAARCAQRYDETDGPEFLLDAPVIAHELPKRLRTFMARARLDAWPHALVVRGNPVDDAALGSTPVHWRTARTPGSRPLSFLLMLYAGLLGDVFGWATQQDGRVVTDVLPIKGGEHTLVSSSSRQELGWHTEDAFSPYRADYVGLLSLRNPDGVATTLAGVPLDDLDERTLDVLFQERFLIRPDDSHLQVNNSTAQQGRVEFEGIAQAADRPEPVAILTGHRAAPHLRVDGDFSAPAEGDEEAAAALGTLRKLIDASLYELVLDQGDVAFIDNRRAVHGRRAFQPRYDGRDRWLKRINITRDLHRSRKAWAGDSRVLGQR”, which “soluble on expression in E. coli” value is on record?
A: soluble

Q: For “MAKIGFIGFGSMASLIATKIIETEVATPEEIILYSNSKNEHFNQFYTKYPTAELADNEAEIFTKADHSFVCKLPLAVLPLMKDCAAVLTPDRHVVSIAAGVSTSDIIEITPGLQVSKLIPSLTTAVNVGTTLIAHAETVNQTNTSWLETTFEHFGHVMTIREENMDIASDLTSSSPGIIAAIFEQFVEAALRRSSLSDAEVFQMINFALAGTSKLLVEEDYTFSGLIQRVATKDGTTAEGVELSKAQLPNFFDELLDRTQNKYASSEKEIQAQKRELLSLEHHHHHH”, which “soluble on expression in E. coli” value is on record?
A: soluble
